# From the supplement of paper PMC12042874
# ± gives the uncertainty stated by the source.
# Experiment: amyloid nucleation score (Sup35N fusion, yeast selection) (log enrichment); library NNK2; higher = more nucleation; inactive = no reads after selection
# In short: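 Sup35N was fused to peptides of 20 random codons and expressed in psi-negative yeast, which were induced with 100 μM copper sulfate for 24 hours and then grown on medium lacking adenine and uracil for 7 days at 30°C. Plasmid inserts from input and output were sequenced on Illumina. The nucleation score is the DiMSum log enrichment of output over input reads, centred on the mode score of non-aggregating sequences. Sequences with under 100 input reads were left out, and random libraries had three technical output replicates.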
row,Substance,amyloid nucleation score
1,SSAGC,-1.23 ± 0.55
2,SSASTRDEKGGSGALERERC,-0.243 ± 1.1
3,SSFFLTQSKSFGYA,inactive
4,SSFSIMLCGGVIFCIVAN,5.02 ± 0.078
5,SSGFQNSSTNGTDAQS,0.101 ± 0.76
6,SSGGGYWLLWVE,-0.559 ± 0.76
7,SSGTCTSHSLVLIHMGLRYV,-0.54 ± 0.54
8,SSGVRPNNLVSFEFHCLELG,-0.28 ± 0.54
9,SSIVEDGLTLLNGGNRIDGY,0.445 ± 0.31
10,SSKKCDNRGLMLWVRGILVA,-0.059 ± 0.24
11,SSLDWWSCSGFLNKQQIKSN,1.08 ± 0.12
12,SSLHACA,2.21 ± 0.29
13,SSLRLDIVRTVHYSQIPEDA,1.04 ± 0.33
14,SSLVGFERGRSMGRGMWVDL,0.041 ± 0.63
15,SSLWVWYLIVD,0.145 ± 0.21
16,SSMIMTGFLYTYYGVIRVVD,inactive
17,SSPAACYMR,-1.69 ± 1.1
18,SSPKSWNILS,0.106 ± 0.48
19,SSPLPQSCERNRVLRTRLGF,0.874 ± 0.45
20,SSRYPVIWESFVPNWTNSHF,-1.22 ± 1.1
21,SSSFFYTHVNHHLVLYDGKA,-0.712 ± 1.1
22,SSSFHKYRRALWKRKRTWVV,5.63 ± 0.081

row,Substance,amyloid nucleation score
1,SSTIGVGRSLFLLMFYRDLI,-1.44 ± 1
2,SSVVFCSNPGVYGSSRWTSV,0.492 ± 0.41
3,SSVVISRVPTARICSEEKGP,inactive
4,SSYLTIPIIRVFLR,0.126 ± 0.8
5,SSYRLDAWVKKLFSLSQRKG,-0.052 ± 0.32
6,STARRRCYFGFGLGQSSAAI,-0.891 ± 1.1
7,STCLTLSMRLLA,3.84 ± 0.078
8,STFSYGCSSTGAFCRLLCRM,0.516 ± 0.64
9,STGMRGKYVTFFCSSVIFRQ,7.2 ± 0.06
10,STGSWTTVKLGREGAILHAL,-0.407 ± 0.45
11,STHSGLSMT,0.877 ± 0.27
12,STLNSYS,-0.42 ± 0.61
13,STMKC,-0.29 ± 0.56
14,STMREQRRRAWRKDCDVIKV,1.84 ± 0.22
15,STPDVVEAWFL,0.039 ± 0.46
16,STPPLILQSYV,-1.17 ± 0.75
17,STRKCFLMLILTRFGMCC,0.603 ± 0.38
18,STTLIEFSLYIRYYTND,4.64 ± 0.084
19,SVALSQVLEKVWESVPKELN,0.62 ± 0.62
20,SVFCRKLTLVAGGDARRDCK,0.497 ± 0.57
21,SVFLSKDIKGVNQCGGLWLS,0.296 ± 0.25
22,SVFMIYKTVSGGHAYFVVQQ,4.97 ± 0.072

row,Substance,amyloid nucleation score
1,SVFRND,-0.28 ± 0.3
2,SVIKQNC,0.547 ± 0.47
3,SVILILSVGLLTIYLSRNG,2.76 ± 0.078
4,SVKYFLDSVDVWIDIISAFF,0.256 ± 0.55
5,SVLANIMLVVVGNSGKYRSG,0.627 ± 0.74
6,SVLMGG,-0.223 ± 0.54
7,SVLMSCD,0.135 ± 0.65
8,SVNMFKFRTDSSFCDLTLCH,0.423 ± 0.8
9,SVNYMAFWKVPTCGLQGGKG,-0.097 ± 0.76
10,SVRMYWAGLLSENKRYNSQS,3.89 ± 0.12
11,SVRVVDDGKTGGVGGTSQR,0.767 ± 0.8
12,SVSDLLLIYVIESSCSHGFK,4.72 ± 0.072
13,SVSRSYGEVRLEHTVLETCR,0.619 ± 0.64
14,SVTGPILICVSLIASFRRSM,4.27 ± 0.061
15,SVVGRYEYIILGTRAPGTSR,0.272 ± 0.5
16,SVVSGWWVIIFLYSHGVSIE,0.093 ± 0.8
17,SVWWSSNFINPPDFCNM,-1.19 ± 1.1
18,SVYPTSGRYYLYRSLIFVGD,-0.57 ± 0.78
19,SVYRGASKVSRCRNVKTGR,0.132 ± 0.32
20,SVYVANYGYPRSGLN,7.02 ± 0.078
21,SWGLPKVVIGGLQMRLEVGA,0.754 ± 0.39
22,SWHFKSKHSCVFFRCEYVVS,-0.373 ± 1

row,Substance,amyloid nucleation score
1,SWHPRKRWNVCERF,0.273 ± 0.49
2,SWHVVQAVIDVVDREV,0.967 ± 0.22
3,SWKSFKRPGTRCRGQYYYMS,-0.266 ± 1
4,SWLIDLTRHSFLI,-1.25 ± 0.78
5,SWMAQCLPRYTHIADQSDGS,0.238 ± 0.17
6,SWMSGVVITETHTALGSWVN,0.442 ± 0.37
7,SWNMIQSTIFLPCNLGDYTV,5.678 ± 0.048
8,SWNSV,-0.442 ± 0.41
9,SWRAYSSF,2.73 ± 0.081
10,SWRWKATAT,-1.09 ± 0.45
11,SWVEGRLDGVFWRLVLFTEN,0.433 ± 0.74
12,SWVFVWLSH,-0.256 ± 1.1
13,SYDVLCILRS,-0.547 ± 0.76
14,SYKGALLSEQIL,0.114 ± 0.4
15,SYLHGDNQLGLSGASFRSRW,inactive
16,SYLVLIHKALSFGRTISDHP,-0.467 ± 0.29
17,SYMCKAHKRLIIGGKWINGW,-0.031 ± 0.53
18,SYRRKYSCRLESINTCAVLC,-0.302 ± 0.47
19,SYRSVYYLVMGFPIGHH,-1.67 ± 1
20,SYTSGYLLVYPFVNIVVFYP,-1.64 ± 1.1
21,SYVMFSIMEH,0.354 ± 0.65
